From a protein production outcome set (Wang et al. 2014)

Assay: label from the status in PepcDB records

| Sequence | protein production |
| --- | --- |
| MHDIILMPCPEVSIIILTRNGKATIGECLKQVYAQNYTNFEVIVIDSASTDGTPDIVNNFPVRFFSIDVKDFGHGKTRNYGAKLSKGKYLAYLTQDASPFNEHWLENLIRNFSDEEVAGVYSRNVPRSDCDPFEARYISSGWGSDREVKSMQNCRNYKKLVFFSNTSSCIRKDTWEKFPFNELLVQTEDQDWSKRVLEAGYKIVYDPGSVVVHSHNNSLKILFKKYFDAGTAHIQIFKNRNNVYLPLIPFFSVISTFLDIRFMFFNNYETINIIKWVPRAVVRHFVEATAFWLGLHFDILPQALKRKFTASGHY | failed |
| REKLFLQPVKPTDSMRMEVSSPKLAIGVRGKREVSEADCYRHHILLKLLFAMMFGWTSDRFQKCYESGKIDASLSLEVEITSRFHFVMLTMDTKEPVALSHQFRKAIRNFTKDLDITEEHLDIIKREMFGEFFSSMNSLEFIATQYDAFENGEIIFDLPKILQEITLEDVLDAGHHLIDDGDIVDFTIFP | failed |
| MKRTGILLVNLGTPKDSSKTEVRKYLKTFLSDRRVIKIHPIIWKPILNGIILNIRPKKSAKLYQKICTENGFPLLEYTEKQMENLKNICPEVEVTIGMSYSEPSIETALDTLLSKEIEELNVIPMYPQYSGTTVGSVFDSVMNYFIKSDRIVDIKFIRSFYNNPQYIDYFSKKINEALNESPIDAIVFSYHGIPMSYVKDGDNYPKECTKTTKLIMDKLGDIRYYQTYQSKFGPSEWLKPATDDTLKKLPSKGIKNILIVAPGFVVDCLETIEELEHENRNYFLENGGEVYKYVHPFNGDIEFAKLVKDIISL | failed |
| MKKKLGLLAMVVALMAIATGCSETGQPITSKSTGIWNEYFVYPLSQLITYFADLFNSNYGLAIVITTLIIRFALLPLMIKQTKSTKAMQALQPEMVKLKEKYSSKDQATQQKLQQEMMQLYQKNGVNPLAGCLPIFVQMPILFAFYHAIMRTAEIKQHSFLWFDLGHADPFYILPVVAAITTFIQQKLAMAGTAGQNPQMAMMLWLMPIMILIFAINFPAALSLYWVVGNIFGIAQMYFIKGPEIKASKAGKAGGSSK | failed |
| MTASPLLTAFLPLALGIIMLGLGLSLTLADFARVVKYPKPVVVGLVCQILLLPLVCFLIANGFGLESALAVGLMLLAASPGGTTANLFSHLAHGDVALNITLTAVNSLIAILTMPLLVNLSLSWFMASDQAIPLQFAKVMQVFAIVLLPVALGMLIRHFAPAFAARMEKPMKLVAALFLAFTIVLALAKDWQTVVEYAPVVGLAALLFNLLSLTVGYWVPRLLNISKRQAIAIGMEIGIHNGTLAIALALSPSLLNNATMAVPAALYSLIMFFTAAGFGWWVSRGHVAAEPKGETVN | failed |
| MTTPIALRDWRLLAAGCGGLLLLAAAITLHSHWGDFLQWCLATQITLHRYLVMYLLLLNNHQYSGGIWLLVGAFLYGVLHAVGPGHGKFIVTTYLSTNQESLTAARVVPFLGSLLQGVTAILFVFILAVGLNLAAGDLSASRWYVEKISALTIGVFGAYVIFRALQSLWPTKQVIRRLTPAHQHDASCGCGHHGVGQDMQGADWKTRLGVVLAIGVRPCSGAIMILLFANALGIVSWGIAAVMSMALGTALSILGLSLLVHYARHRTVKRLVTNHRPRPWLVPLVKILGGLALILFAVGLFFSVVPISANGDFIAAGC | failed |
| MDSRKALDGLAVTLMIILCLTWGLQQVALKATSAEIAPLMQIAIRSGISALLVGIMMAVRGERLSLAGGMWRPGLAVGFLFALEYLLVGEGLRHTTASHMVIFLYTAPVFAAIGLHLKLRSERLRPVQWFGIALAFGGIVVSFYGRGGHTASLSVASVIWGDVLGLAAGMAWGMTTVVIRTSRLAACSATQTLLFQLLGAFILLLPAAAVLDQTYFNPTRLGWACLIFQTLIVSFASFLVWFWLLRHYVASRLGVLSFMTPLFGVALGAWLLNEPLERGFLAGALLVLTGIILVSGHGWLRQLGNGAGAAVQEQAREPDLP | failed |
| MNLLPKTREEFAQTDYWNEFFKKRGEKAFEWYGEYLELCDQIHKYIKPADRILMLGCGNSKLSMDMYDTGFRDITNIDISPIAVKKMLELNAKSRPEMKFLQMDATAMTFPDESFSVSLDKGTLDALFADDEPETRAVVENYFKEILRTMRNGGRYVGISLLQEHILNFLLDFLPKHNCMLRIVHCLGVEQANKEKNADDALTLPVFVVVATKFKSLPMPVLEFGFGNDKMQRFTTVSELNSAVSSVQKAALVCNGLARSNIAGHNEVIMDLHRPSEQTPRYTIHILDKPPARGLGKYAAFIVPQGREVEWIFSTPAGRKKLQDSANFQRLAVVTLHRDQVYSTLDEVKQELADSIKNLSPAGLTDQIPYLSLGSDVGKRETLICGFSKISGDFRIEEVEANGKTLRRLIFLSNQFVVQSEALVKTVKIKGKKDRKKIDFGYLACQHHLYMSVGVQLATTVQHPKRDVEKDVLVVGLGGGGLCSFLHAALPQARITAVEIDPIMLEVAEQYFELKQDKRFHVVIDDGLDFVERCRNEDIHFDAVLFDVDSKDLSLGMSCPPQSFLATKILQHIKEIIGPKGLFMLNLVCRDESLRTEALNNLHKVFPAVCSYKLEEDINEIIYCANDEKYKTVEQWKKNMGTAGRGLNSAVKETKLASEDALEVAEFLSELKI | failed |
| MGAMHVLTLDLAPVTPKDAPLLHRVFHLSPSYFALIGMELPTLEDVVRDLQTLEVDPRRRAFLLFLGQEPVGYLDAKLGYPEAEDATLSLLLIREDHQGRGLGRQALERFAAGLDGVRRLYAVVYGHNPKAKAFFQAQGFRYVKDGGPTLTWYVRPL | not failed |
| KRKTKEQLAILKSFFLQCQWARREDYQKLEQITGLPRPEIIQWFGDTRYALKHGQLKWFRDNA | not failed |
| MQYLIVKYSHQIFVTITILVFNIRFFLLWKNPEKPLAGFWKALPHLNDTMLLFTGLWLMKITHFSPFNAPWLGTKILLLLAYIALGMMMMRARPRSTKFYTVYLLAMCCVACIVYLAKTKVLPF | failed |
| MKCKDDMSAVLTAEQALKLVGEMFVYHMPFNRALGMELERYEKEFAQLAFKNQPMMVGNWAQSILHGGVIASALDVAAGLVCVGSTLTRHETISEDELRQRLSRMGTIDLRVDYLRPGRGERFTATSSLLRAGNKVAVARVELHNEEQLYIASATYMVG | failed |
| MTTESAWTRWPSREALGREGLSRPRRMLAWTVRALVLAMLLWGAFSSSHVHGWGAVAAAAGVLLAAGASWAFFRTTLQHRLWPSLALIAVLLGIAIVAQTAGFQVPALVIWCGCAVSALERLPLAAALPVTTAALAAYAAVDNDVWLTTAATIAGLFLAGYVLRLDAEARGSAQRLLAQERAARAAETQSAALAERARIAREIHDVLAHSLSAQLVHLEAARLLIERGADREQILGRVVAARGMAREGLAETRQALSALRGEISPLEDFLSELVAFEDGADVTVSGERRLLTAEASQAVRRVAQEALTNVRKHAPGAKVQVKLEYGERQVTLHVRDSGGKPGDLTGSGAGYGLLGMRERAELLGGSLEAGREEKGFVVTLKVPA | failed |
| MKKIKALALFSGGLDSLLSMKLLIDQGIEVTALHFNIGFGGNKDKREYFENATAQIGAKLLVCDIREQFFNDVLFKPKYGYGKYFNPCIDCHANMFRNAFYKMLELNADFVLSGEVLGQRPKSQRKEALNQVRKLVREVGEEARFDPVLDRTQAGGKKPQFLDELLLRPMSAKLLEPTFMEKKGFVDREKLLDVSGRGRSRQLQMIKDYGLKYYEKPGGGCLLTDIQVSNKIKNLKEYREMVFEDSVIVKNGRYFVLPHNARLVVARNEEENHKLDIQHPLMDKIELLNCKGPLSLVDKNASKEDKELAGRIALGYAKTLKNQAYLIQIGDEKRELYPLDKENAREYLFA | failed |
| MEDPLGRLEWIKFLSAFYDKEDKAENYFNQQVSKVMATENKVSSLKKPKVAFGMVDNGKVYIPAKNSYAAKMVDMAGGDYIFKDLNNKSGYITLEDFYSKSKDADVLIYSSSKEYTPSLKSMLSAAPILKTIKPVKNKKVWCFGKDYYQAIDKTDEIIEDLASIFHPESFKGLEHHHHHH | failed |
| QKGRVETRRVVHIMDFQRGKNLRYQLLQLVEPFGVISNHLILNKINEAFIEMATTEDAQAAVDYYTTTPALVFGKPVRVHLSQKYKRIK | not failed |
| MAINIIEYNRSYKEELIEFILSIQKNEFNIKIDRDDQPDLENIEHNYLNSGGQFWLAINNHQNIVGTIGLIRLDNNMSALKKMFVDKGYRNLKIGKKLLDKVIMTCKEQNIDGIYLGTIDKFISAQYFYSNNGFREIKRGDLPSSFPKLDVDNRFYYRNLKD | not failed |
